Source: US20110152358A1, “Compositions and Methods for Diagnosis and Treatment of Pancreatic Ductal Cancer” (priority 2008, published 2011)

How the values were obtained:
Assay type in all cases: cell-based, human
T3M4 cells [1] = experiment: in vitro wound-healing (migration) assay, shRNA infected T3M4 cells; settings: serum free; 24 hours; percentage change in wound area
Protocol: To assess the motility properties, in vitro wound-healing assays or migration assays were performed. Cells were grown to confluence in 6-well tissue culture plates, serum starved overnight, and the monolayer was scratched with a 200 μL pipette tip generating two parallel wounds. The scratched wells were washed to remove cell debris and incubated for the next 24 hours in serum free media in the absence or presence 1 nmol/L EGF with or without the Src family kinase inhibitor PP2 (4-amino-5-(4-chlorophenyl)-7-(t-butyl)pyrazolo[3,4-d]pyrimidine) (Alexis, La Jolla, Calif.). To monitor cell migration, photographs were taken of each well at five marked locations under 40× magnification immediately after wounding (t0) and again 24 hours after wounding (t24), using an inverted microscope fitted with a digital camera (Nikon Diaphot 300, Nikon, Japan). The wound area of five matched pictures at t0 and t24 from each well were then measured using the ImageJ software (NIH, Bethedsa, Md.), and the percentage change in the wound area was calculated.

14-3-3σ = experiment: downregulation of 14-3-3σ by lentiviral shRNA in T3M4 cells (western blotting, Q-PCR); settings: for 14-3-3σ levels: MOI of 40
T3M4 cells [2] = experiment: cisplatinum induced apoptosis, immunoblot of cleaved PARP and cleaved caspase-3, shRNA infected T3M4 cells; settings: cisplatinum 10 νg/mL for 2, 6, or 24 hours
Protocol: Sham or 14-3-3σ transfected PANC-1 cells were incubated for 24 hours in complete medium in the absence or presence of 10 μg/mL of cisplatinum. Scrambled or 14-3-3σ specific shRNA infected T3M4 cells were incubated in complete medium for 24 hours that was supplemented with 10 μg/mL cisplatinum for the initial 2 or 6 hours, or the entire 24 hours. Both floating and adherent cells were then collected and lysed in the buffer containing protease inhibitors, subjected to 10% SDS-PAGE, and immunoblotted with specific antibodies against cleaved Poly (ADP-ribose) Polymerase (PARP) and cleaved caspase-3 (Cell Signaling Technology, Danvers, Mass.).

B1: sh2: lentiviral shRNA targeting 14-3-3σ, SEQ ID NO: 26 (sense) and 27 (antisense) (nucleic acid)
sense: TGGAGAGAGCCAGTCTGATCTTCAAGAGAGATCAGACTGGCTCTCTCCTTTTTTC
antisense: TCGAGAAAAAAGGAGAGAGCCAGTCTGATCTCTCTTGAAGATCAGACTGGCTCTCTCCA
- basal motility of shRNA infected cells (T3M4 cells [1]): 20%
- knockdown of 14-3-3σ, sh2 relative to sh1 (14-3-3σ): more effective than sh1
- 14-3-3σ levels (14-3-3σ): reduce
- sensitivity of sh2 infected cells to cisplatinum compared to sh1 (T3M4 cells [2]): relatively more sensitive
- sensitivity of shRNA infected cells to cisplatinum versus control cells (T3M4 cells [2]): significantly more sensitive than control cells

B2: sh1: lentiviral shRNA targeting 14-3-3σ, SEQ ID NO: 24 (sense) and 25 (antisense) (nucleic acid)
sense: TCGAGACAACCTGACACTGTTTCAAGAGAACAGTGTCAGGTTGTCTCGTTTTTTC
antisense: TCGAGAAAAAACGAGACAACCTGACACTGTTCTCTTGAAACAGTGTCAGGTTGTCTCGA
- basal motility of shRNA infected cells (T3M4 cells [1]): 20%
- 14-3-3σ levels (14-3-3σ): reduce
- sensitivity of shRNA infected cells to cisplatinum versus control cells (T3M4 cells [2]): significantly more sensitive than control cells

B3: shCtrl: scrambled control shRNA not targeting any known mammalian gene, SEQ ID NO: 28 and 29 (nucleic acid)
chain 1: TACGAGCGAGGTGCCGATATTTCAAGAGAATATCGGCACCTCGCTCGTTTTTTTC
chain 2: TCGAGAAAAAAACGAGCGAGGTGCCGATATTCTCTTGAAATATCGGCACCTCGCTCGTA
- basal motility of shRNA infected cells (T3M4 cells [1]): 20%
- 14-3-3σ levels (14-3-3σ): did not alter
